Measurements from the supplement of paper PMC10567573.

B1: OR10K2 (parent)
chain: SLARLQQLLFVIFLLLYLFTLGTN
B2: ANKRD40 (parent)
chain: SLRENDFIEIELDRQELTYQELLR

Variants of: B1
Assay: protein stability index of a GFP-peptide fusion (GPS, HEK-293T) (PSI 1-6); higher = more stable
Conditions: c terminus: a fixed tail appended
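Also: lentivirally expressed fusions sorted by FACS into six bins by GFP to DsRed ratio, PSI derived from sequencing read proportions per bin multiplied by bin number.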

Protein stability index, by site and new letter:
G22: C 2.65, H 2.3, W 2.11, N 3.78, K 2.48
L5: D 3.05, N 2, M 1.41, V 2.44, F 2.59, E 2.27, W 3.37, G 3.76, C 3.1, A 3.68, P 2.02, S 3.05, T 2.28, R 1.85, I 1.78, H 2.62, K 2.85
R4: L 3.28, P 2.24, A 4.04, D 1.62, F 2.36, M 3.67, K 2.19, H 2.36, W 2.28, N 2.73, S 2.62, E 3.95, Y 2.57, I 3.36
N24: T 2.4, F 2.87, W 1.99, L 3.23, A 2.11, I 2.75
L16: E 3.61, Y 3.45, S 3.14, T 3.42, I 2.15
A3: E 1.91, L 2.75, F 1.86, W 2.23, G 1.49, N 3.31, T 1.91, Q 3.09, H 3.07, K 1.51, R 1.76, M 1.88
L14: G 2.6, I 2.72, H 2.31, F 2.64
Q7: A 1.91, L 1.72, T 1.74, R 2.45, C 2.1, V 2.1, Y 1.66, W 1.58, F 1.79, K 3.27, G 3.23, M 2.14, S 2.11, P 1.9, H 1.9, N 3.21, I 1.99, E 2.69
F10: I 4.24, Y 2.37, Q 2.22, R 3.34, G 3.07, N 2.18, T 3.08, V 2.29
F19: I 1.51, M 2.17, L 2.05
L9: W 2.84, P 3.06, I 2.15, C 3.51, K 3.92
L18: D 1.64, K 2.07, I 2.73, M 2.1, S 2.25, G 2.29
L15: T 2.62, Q 2.4, V 1.48
T20: N 3.75, R 2.2, L 1.5, M 1.29, F 3.51, I 2.11, Q 1.45
Q6: A 2.61, D 3.29, W 2.2, V 2.45, P 1.38, G 2.56, H 2.35, F 2.72, K 3.25, C 2.58, T 2.68, I 2.84, L 2.97, Y 2.6, N 2.84, M 2.94, E 3.01, S 2.43
Y17: V 1.57, L 2.34, W 2.13, I 3.43, F 1.68, C 2.72
L2: F 2.52, E 2.01, S 2.94, N 3.77, T 2.59, I 3.49, R 2.48, W 1.88, C 2.55, Q 2.62, Y 2.34, M 2.45, K 2.49, A 3.88, G 1.4, D 2.06
S1: L 3.72, N 2.38, V 2.31, M 3.25, R 2.11, K 2.87, H 2.88, Y 3.24, D 1.54, T 2.85, W 1.59, E 2.11, A 2.7, C 2.44, G 2.86, I 2.21, P 2.46, Q 2.21, F 1.35
L8: D 2.99, F 2.88, M 3.83, R 3.34, I 2.4, G 2.92, P 3.32, C 3.24, S 2.86, V 2.17, W 2.53, N 2.24, A 1.98, E 1.9, Y 3.36, K 3.04, T 1.97
I12: H 2.02, K 3.69, L 2.29, P 3.58, E 1.78
V11: Y 2.3, F 2.58, P 2.94, M 3.05, H 2.61, T 3.08, A 1.59, S 1.85
T23: R 1.53, D 1.44, S 1.86, C 4.22, H 1.75
L21: C 3.39, T 3.5, V 2.08, F 3.52, I 2.08, N 4.16, S 2.34, Y 1.62
F13: A 2.44, K 1.43, Q 3.04, Y 3.74, H 2.96, C 3.12, G 1.73, W 3.36

Variants of: B2
Assay: as above
Conditions: c terminus: a fixed tail appended

Protein stability index, by site and new letter:
R3: W 2.26, H 3.08, N 3.06, K 3.23, T 2.91, A 3.29, Y 2.65, D 2.9, L 2.29, E 2.85, G 3.26, V 2.44, F 2.37, C 3.14, S 3.54, P 3.52, I 2.9, M 2.54, Q 2.95
D6: Q 2.76, T 2.34, C 2.28, N 2.99, G 2.82, S 2.55, R 3.14, E 2.97, F 2.12, I 1.28, A 2.42, L 2.15, K 2.64, H 2.57, M 1.66, P 2.97
N5: G 3.03, L 2.14, C 2.48, T 3.09, F 2.2, S 2.77, K 2.88, V 2.4, Q 2.96, M 2.4, Y 2.75, A 2.57, H 2.62, W 1.72, R 2.79, E 2.78, I 2.33, D 2.82, P 3.34
L2: V 3.12, E 2.93, R 2.8, I 2.66, D 3.6, W 2.73, P 3.49, K 3.01, G 3.02, A 3.91, T 3, S 3.2, H 3.01, Q 3.48, F 2.36, N 2.89, Y 2.68, M 3.09, C 2.99
E4: H 2.84, Q 2.97, L 2.05, G 2.57, M 2.55, I 2.02, Y 2.17, C 2.16, V 1.83, F 2.41, S 3.21, A 2.74, D 3.25, P 3.21, W 2.19, N 2.92, T 2.7, R 2.31, K 2.16
S1: F 2.29, R 3.07, V 3.17, E 3.41, A 2.82, P 3.26, I 2.34, W 2.26, K 3.23, H 3.26, Y 2.3, G 2.77, Q 3.44, N 3.31, M 2.66, D 3.12, T 3.38, L 2.84, C 3.07
